Usually Kd stands for the equilibrium constant for the complex coming apart.

This note sets out measurements from patent publication US20230065495A1, “MULTIPARTITE AND CIRCULARLY PERMUTED BETA-BARREL POLYPEPTIDES AND METHODS FOR THEIR USE” (University of Washington, priority 2020, published 2023).

The nature of experiment [1]: Absolute quantum yield (integrating sphere) and brightness. Format: physicochemical. The method, then:
Protein preparation. mFAP2a, mFAP2b and mFAP10 were produced by large-scale protein purification^9 and dialyzed overnight into DPBS that was adjusted to pH 7.40 using NaOH.
Chromophore preparation. DFHBI (Lucerna) and DFHBI-1T (Lucerna) were dissolved to 20.0 mM in 100% DMSO, and diluted in DPBS (pH 7.40) to measure absorbances on a Jasco V-750 spectrophotometer at peak absorbance wavelengths (417 nm for DFHBI and 422 nm for DFHBI-1T). Following background subtraction of identical buffer without chromophore, Beer's Law was used to calculate the molar chromophore concentrations of the stock solutions using previously reported extinction coefficients^5.
Preparation of protein-chromophore complexes. […]
Absolute quantum yield. […] Absolute quantum yields were measured for solutions of protein-chromophore complexes in DPBS (pH 7.40) in which ≥95% of the total chromophore was occupying the protein binding pocket (Table 4). Protein-chromophore complex samples and control samples were excited at λex=440 nm and absolute quantum yields were calculated according to the equation: […]
where fem is the emitted photon flux and fabs is the absorbed photon flux. […] Absolute quantum yield data was analyzed with U6039-05 PLQY measurement software (Table 4; FIG. 8).

A short description of experiment [2]: Chromophore titration with DFHBI. Format: binding. The method, then:
(§1) Fluorescence endpoints were measured on a Synergy Neo2™ hybrid multi-mode reader (BioTek) in flat bottom, black polystyrene, non-binding surface 96-well microplates (Corning 3650). In measuring chromophore binding affinities (FIG. 6d,e), mFAP2, mFAP2a, and mFAP2b, and mFAP10 were produced by large-scale protein purification and SEC purification^9. Proteins were aliquoted in eight technical replicates in 200 μL final volumes to 20.0 nM final concentration in ten serial dilutions (√{square root over (10)} dilution factor) of DFHBI starting from 31.6 μM DFHBI or 31.6 μM DFHBI-1T final concentrations, including an eleventh condition without chromophore. Fluorescence was excited at λex=468 nm and fluorescence emission measured at λem=530 nm. Background fluorescence endpoints of wells with identical chromophore concentrations but purified protein replaced with an identical volume of high salt Tev cleavage buffer were measured, and fluorescence endpoints subtracted from those measured with protein. Background-subtracted data were averaged and the means normalized from 0 to 1 and fit to a single binding site isotherm function using non-linear least squares fitting to obtain a fitted Kd value (Table 4), and the fit scaled to the maximum mean value (FIG. 6d,e).

The nature of experiment [3]: Chromophore titration with DFHBI-1T. Format: binding. The method, then: as §1

B1: mFAP10: canonical, single-chain mFAP, SEQ ID NO: 534 (protein)
chain: SRAAQLLPGTWQATFTNEDGQTSQGQIHFQPRSPYTMDIVAQGTISDGRPIVGYGKATVKTPDTLDIDITYPSLGNIKAQGQITMDSPTQFKFDATTKGENDFHGRLTGTLQRQE
Turning to B1, in experiment [1], the “brighter fluorescence with DFHBI-1T than DFHBI” value is ~12 fold. Also, the “higher affinity for DFHBI than DFHBI-1T” value in experiment [2] is ~2.6 fold. Also, in experiment [3], the Kd was found to be 45 nM.
